From US20120165204A1 come the findings set out here.

Experiment [1] has as its target CRIB domain of PAK1 (residues 65-150, extended CRIB domain) with C-terminal 6x Histidine tag (UniProt Q13153). In words: ITC. A general note: ITC needs no label: the signal is the heat of the interaction.
Experiment [2] shares this target. In words: ITC at 25 °C, PA-Rac1 mutant injected into PAK1 CRIB (10 µM), experiment 2; column head prints 'mM', paragraph 152 gives µM.
Experiment [3] has the same target. As to the kind of experiment: ITC at 25 °C, PA-Rac1 mutant injected into PAK1 CRIB (10 µM), experiment 1; column head prints 'mM', paragraph 152 and the legend of FIG. 3 give µM.
The target is the same in experiment [4]. As to the kind of experiment: ITC at 25 °C, experiment 2, stoichiometry of one-site model.
The target is the same in experiment [5]. As to the kind of experiment: ITC at 25 °C, experiment 2. Also on record: unit not given here.
The target is the same in experiment [6]. As to the kind of experiment: ITC at 25 °C, experiment 1, stoichiometry of one-site model.
Experiment [7] has the same target. In words: ITC at 25 °C, experiment 1. Also on record: unit not given here.
Experiment [8] has the same target. In words: ITC at 25 °C, PA-Rac1 mutant injected into PAK1 CRIB (10 µM), experiment 2; column head prints 'mM', paragraph 152 gives 220-280 nM.
For experiment [9] the target is unchanged. In words: ITC at 25 °C, PA-Rac1 mutant injected into PAK1 CRIB (10 µM), experiment 1; column head prints 'mM', paragraph 152 and the legend of FIG. 3 give µM / nM.

As a reminder, the Kd is the free concentration of one partner at which half of the binding sites on the other are occupied at equilibrium, for simple one-to-one binding. In experiment [1], “PA-Rac1 C450A (dark state mutant) with N-terminal six Histidine tag (from UniProt P63000 4-192)” showed a fold weaker affinity than the lit state mimetic I539E of 10 fold. For the same substance, the Kd in [2] turned out to be 3100 nM; in [3], 2300 nM. For the same substance, the N in experiment [4] is 0.64; in experiment [6], 1. Moreover, the results for the ΔH in experiment [5] and in experiment [7] were -5600 and -7000, respectively. Moreover, the ΔS in experiment [5] turned out to be 6.6; in experiment [7], 2.6.

“PA-Rac1 I539E (lit state mutant) with N-terminal six Histidine tag (from UniProt P63000 4-192)”: the Kd came out at 280 nM in experiment [8] and 220 nM in experiment [9]. The N in experiment [4] and in experiment [6] was 0.95 in each case. This substance also displayed a ΔH in experiment [5] of -18000. Moreover, the ΔS was -31 in [5] and -30 in experiment [7].
